From patent US20050158838

Assays:
[1] = biological target: T1, phage isolate 5-H11 display polypeptide ((Asp)4-Lys-containing recognition sequence)
T1 chain: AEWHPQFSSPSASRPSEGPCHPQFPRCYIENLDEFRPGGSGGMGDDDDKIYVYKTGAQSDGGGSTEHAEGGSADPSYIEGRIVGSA

[2] = biological target: T2, AVLSNVMFI (negative control test peptide)
T2 chain: AVLSNVMFI

DINDDRSLF test peptide = biological target: T3, DINDDRSLF test peptide
T3 chain: DINDDRSLF

GNYTDRMFI test peptide = biological target: T4, GNYTDRMFI test peptide
T4 chain: GNYTDRMFI

[3] = biological target: T5, phage isolate 5-H04 display polypeptide
T5 chain: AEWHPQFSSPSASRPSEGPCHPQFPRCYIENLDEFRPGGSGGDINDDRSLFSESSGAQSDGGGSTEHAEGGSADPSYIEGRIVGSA

GNYTDRYFI test peptide = biological target: T6, GNYTDRYFI test peptide
T6 chain: GNYTDRYFI

[4] = biological target: T7, phage isolate 5-B05 display polypeptide
T7 chain: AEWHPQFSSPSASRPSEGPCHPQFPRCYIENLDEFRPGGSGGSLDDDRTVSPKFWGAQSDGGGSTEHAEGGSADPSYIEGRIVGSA

[5] = biological target: T8, phage isolate 5-A08 display polypeptide
T8 chain: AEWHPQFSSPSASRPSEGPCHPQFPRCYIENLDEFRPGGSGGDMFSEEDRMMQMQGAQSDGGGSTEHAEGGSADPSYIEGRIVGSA

NKAKDRMFI test peptide = biological target: T9, NKAKDRMFI test peptide
T9 chain: NKAKDRMFI

GNYTDRRFI test peptide = biological target: T10, GNYTDRRFI test peptide
T10 chain: GNYTDRRFI

[6] = biological target: T11, GDDDDKIYV (positive control test peptide)
T11 chain: GDDDDKIYV

GDDDDK-β naphthylamine = biological target: T12, GDDDDK-β naphthylamine
T12 chain: GDDDDK

B1: recombinant light chain enterokinase (Novagen, Madison, Wis.) (protein)
chain: IVGGSDSREGAWPWVVALYFDDQQVCGASLVSRDWLVSAAHCVYGRNMEPSKWKAVLGLHMASNLTSPQIETRLIDQIVINPHYNKRRKNNDIAMMHLEMKVNYTDYIQPICLPEENQVFPPGRICSIAGWGALIYQGSTADVLQEADVPLLSNEKCQQQMPEYNITENMVCAGYEAGGVDSCQGDSGGPLMCQENNRWLLAGVTSFGYQCALPNRPGVYARVPRFTEWIQSFLH
Question: For B1, which “enterokinase cleavage rate, phage ELISA (release of streptavidin-bound phage at 30 nM or 130 nM enterokinase)” value [1] is on record?
Answer: The value was “the cleavage rate for the (Asp)4-Lys-containing recognition sequence 5-H11 (SEQ ID NO:194) was slower than for at least three of the other isolates”.

Question: What about the “cleavage by 20U recombinant light chain enterokinase, 36-48 hrs, HPLC” value (“cleavage … HPLC” for short) [2] of the same protein?
Answer: The value was “No cleavage occurred with the negative control peptide (SEQ ID NO:198)”.

Question: And the Cleavage Rate (DINDDRSLF test peptide)?
Answer: Its Cleavage Rate is 1.43 nmol/min.

Question: What about the “cleavage … HPLC” value (DINDDRSLF test peptide) of the same protein?
Answer: The value was “all digestions were carried to completion (except for the negative control which was not cleaved at all)”.

Question: And the rate relative to standard substrate (fold of standard substrate) (DINDDRSLF test peptide)?
Answer: The rate relative to standard substrate (fold of standard substrate) was 3.1.

Question: What about the ratio (Va/Vb) against reference peptide GDDDDK-βNA, equal to the ratio of kcat/Km (DINDDRSLF test peptide) of the same protein?
Answer: Its ratio (Va/Vb) against reference peptide GDDDDK-βNA, equal to the ratio of kcat/Km is 30.

Question: What about the Cleavage Rate (GNYTDRMFI test peptide) of the same protein?
Answer: The Cleavage Rate was 0.81 nmol/min.

Question: What about the “cleavage … HPLC” value (GNYTDRMFI test peptide) of the same protein?
Answer: Its value is “all digestions were carried to completion (except for the negative control which was not cleaved at all)”.

Question: What about the rate relative to standard substrate (fold of standard substrate) (GNYTDRMFI test peptide) of the same protein?
Answer: Its rate relative to standard substrate (fold of standard substrate) is 1.8.

Question: And the ratio (Va/Vb) against reference peptide GDDDDK-βNA, equal to the ratio of kcat/Km (GNYTDRMFI test peptide)?
Answer: Its ratio (Va/Vb) against reference peptide GDDDDK-βNA, equal to the ratio of kcat/Km is 3.5.

Question: What about the “enterokinase cleavage rate, phage ELISA (release of streptavidin-bound phage at 30 nM or 130 nM enterokinase)” value [3] of the same protein?
Answer: Its value is “isolate 5-H04 (SEQ ID NO:188) shown in Table 5 was the most readily cut”.

Question: What about the Cleavage Rate (GNYTDRYFI test peptide) of the same protein?
Answer: Its Cleavage Rate is 0.24 nmol/min.

Question: And the “cleavage … HPLC” value (GNYTDRYFI test peptide)?
Answer: The value was “all digestions were carried to completion (except for the negative control which was not cleaved at all)”.

Question: And the rate relative to standard substrate (fold of standard substrate) (GNYTDRYFI test peptide)?
Answer: The rate relative to standard substrate (fold of standard substrate) was 0.5.

Question: What about the “enterokinase cleavage rate, phage ELISA (release of streptavidin-bound phage at 30 nM or 130 nM enterokinase)” value [4] of the same protein?
Answer: Its value is “the cleavage rate for ... 5-H11 (SEQ ID NO:194) was slower than for at least three of the other isolates, i.e., 5-A08 (SEQ ID NO:137), 5-B05 (SEQ ID NO:145) and 5-H04 (SEQ ID NO:188)”.

Question: And the “enterokinase cleavage rate, phage ELISA (release of streptavidin-bound phage at 30 nM or 130 nM enterokinase)” value [5]?
Answer: The value was “the cleavage rate for ... 5-H11 (SEQ ID NO:194) was slower than for at least three of the other isolates, i.e., 5-A08 (SEQ ID NO:137), 5-B05 (SEQ ID NO:145) and 5-H04 (SEQ ID NO:188)”.

Question: And the Cleavage Rate (NKAKDRMFI test peptide)?
Answer: The Cleavage Rate was 0.26 nmol/min.

Question: What about the “cleavage … HPLC” value (NKAKDRMFI test peptide) of the same protein?
Answer: The value was “all digestions were carried to completion (except for the negative control which was not cleaved at all)”.

Question: And the rate relative to standard substrate (fold of standard substrate) (NKAKDRMFI test peptide)?
Answer: The rate relative to standard substrate (fold of standard substrate) was 0.6.

Question: And the Cleavage Rate (GNYTDRRFI test peptide)?
Answer: The Cleavage Rate was 0.18 nmol/min.

Question: And the “cleavage … HPLC” value (GNYTDRRFI test peptide)?
Answer: Its value is “all digestions were carried to completion (except for the negative control which was not cleaved at all)”.

Question: What about the rate relative to standard substrate (fold of standard substrate) (GNYTDRRFI test peptide) of the same protein?
Answer: The rate relative to standard substrate (fold of standard substrate) was 0.4.

Question: What about the “cleavage … HPLC” value [6] of the same protein?
Answer: Its value is “all digestions were carried to completion (except for the negative control which was not cleaved at all)”.

Question: And the rate relative to standard substrate (fold of standard substrate) [6]?
Answer: Its rate relative to standard substrate (fold of standard substrate) is 0.7.

Question: What about the ratio (Va/Vb) against reference peptide GDDDDK-βNA, equal to the ratio of kcat/Km [6] of the same protein?
Answer: Its ratio (Va/Vb) against reference peptide GDDDDK-βNA, equal to the ratio of kcat/Km is 1.

Question: And the rate relative to standard substrate (fold of standard substrate) (GDDDDK-β naphthylamine)?
Answer: Its rate relative to standard substrate (fold of standard substrate) is 1.
